Experimental data as given in the supplement of paper PMC5998384.

Key:
HeLa Kyoto [1] = experiment: melting temperature (median over replicates), in situ; higher = more thermally stable
HeLa Kyoto [2] = experiment: solubility in G1/S (NP-40 vs SDS abundance) (log2 ratio); higher = more soluble; conditions: cell cycle stage: G1/S
HeLa Kyoto [3] = experiment: solubility change mitosis vs G1/S (difference of NP-40 vs SDS log2 ratios) (log2 ratio difference); higher = more soluble in mitosis
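Wherever melting temperature (median over replicates), in situ is given: HeLa Kyoto cells synchronized by double thymidine or nocodazole block, proteins quantified by TMT10plex mass spectrometry, three independent biological replicates.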
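Wherever solubility change mitosis vs G1/S (difference of NP-40 vs SDS log2 ratios) is given: synchronized HeLa Kyoto cells (double thymidine block for G1/S, nocodazole release for mitosis), protein amounts in NP-40 versus SDS lysates quantified by mass spectrometry, three biological replicates.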
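Wherever solubility in G1/S (NP-40 vs SDS abundance) is given: HeLa Kyoto cells arrested at G1/S by double thymidine block, proteins quantified by TMT10plex mass spectrometry in mild NP-40 versus SDS extracts, three biological replicates.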

Substance	melting temperature (HeLa Kyoto [1]; cell cycle stage: G1/S)	melting temperature (HeLa Kyoto [1]; cell cycle stage: mitosis)	solubility in G1/S (log2) (HeLa Kyoto [2])	solubility change mitosis (log2) (HeLa Kyoto [3])
MAQEEEDVRDYNLTEEQKAIKAKYPPVNRKYEYLDHTADVQLHAWGDTLEEAFEQCAMAMFGYMTDTGTVEPLQTVEVETQGDDLQSLLFHFLDEWLYKFSADEFFIPREVKVLSIDQRNFKLRSIGWGEEFSLSKHPQGTEVKAITYSAMQVYNEENPEVFVIIDI [ZBTB8OS]	52.6 °C	53.1 °C	0.153	0.0908
MAGPESDAQYQFTGIKKYFNSYTLTGRMNCVLATYGSIALIVLYFKLRSKKTPAVKAT [USMG5]	55 °C	52.6 °C	-1.21	-0.0955
ATG2B	–	53.4 °C	-0.312	0.00813
MGSTESSEGRRVSFGVDEEERVRVLQGVRLSENVVNRMKEPSSPPPAPTSSTFGLQDGNLRAPHKESTLPRSGSSGGQQPSGMKEGVKRYEQEHAAIQDKLFQVAKREREAATKHSKASLPTGEGSISHEEQKSVRLARELESREAELRRRDTFYKEQLERIERKNAEMYKLSSEQFHEAASKMESTIKPRRVEPVCSGLQAQILHCYRDRPHEVLLCSDLVKAYQRCVSAAHKG [CHCHD6]	54.7 °C	53.2 °C	0.215	0.232
MLRRVTVAAVCATRRKLCEAGRELAALWGIETRGRCEDSAAARPFPILAMPGRNKAKSTCSCPDLQPNGQDLGENSRVARLGADESEEEGRRGSLSNAGDPEIVKSPSDPKQYRYIKLQNGLQALLISDLSNMEGKTGNTTDDEEEEEVEEEEEDDDEDSGAEIEDDDEEGFDDEDEFDDEHDDDLDTEDNELEELEERAEARKKTTEKQSAAALCVGVGSFADPDDLPGLAHFLEHMVFMGSLKYPDENGFDAFLKKHGGSDNASTDCERTVFQFDVQRKYFKEALDRWAQFFIHPLMIRDAIDREVEAVDSEYQLARPSDANRKEMLFGSLARPGHPMGKFFWGNAETLKHEPRKNNIDTHARLREFWMRYYSSHYMTLVVQSKETLDTLEKWVTEIFSQIPNNGLPRPNFGHLTDPFDTPAFNKLYRVVPIRKIHALTITWALPPQQQHYRVKPLHYISWLVGHEGKGSILSFLRKKCWALALFGGNGETGFEQNSTYSVFSISITLTDEGYEHFYEVAYTVFQYLKMLQKLGPEKRIFEEIRKIEDNEFHYQEQTDPVEYVENMCENMQLYPLQDILTGDQLLFEYKPEVIGEALNQLVPQKANLVLLSGANEGKCDLKEKWFGTQYSIEDIENSWAELWNSNFELNPDLHLPAENKYIATDFTLKAFDCPETEYPVKIVNTPQGCLWYKKDNKFKIPKAYIRFHLISPLIQKSAANVVLFDIFVNILTHNLAEPAYEADVAQLEYKLVAGEHGLIIRVKGFNHKLPLLFQLIIDYLAEFNSTPAVFTMITEQLKKTYFNILIKPETLAKDVRLLILEYARWSMIDKYQALMDGLSLESLLSFVKEFKSQLFVEGLVQGNVTSTESMDFLKYVVDKLNFKPLEQEMPVQFQVVELPSGHHLCKVKALNKGDANSEVTVYYQSGTRSLREYTLMELLVMHMEEPCFDFLRTKQTLGYHVYPTCRNTSGILGFSVTVGTQATKYNSEVVDKKIEEFLSSFEEKIENLTEEAFNTQVTALIKLKECEDTHLGEEVDRNWNEVVTQQYLFDRLAHEIEALKSFSKSDLVNWFKAHRGPGSKMLSVHVVGYGKYELEEDGTPSSEDSNSSCEVMQLTYLPTSPLLADCIIPITDIRAFTTTLNLLPYHKIVK [NRD1]	50.5 °C	50.9 °C	0.116	-0.188
MWHSVGLTLLVFVATLLIVLLLMVCGWYFVWHLFLSKFKFLRELVGDTGSQEGDHEPSGSETEEDTSSSPHRIRSARQRRAPADEGHRPLT [SMIM13]	55.5 °C	–	-0.0724	-0.138
MAAQLLEEKLTCAICLGLYQDPVTLPCGHNFCGACIRDWWDRCGKACPECREPFPDGAELRRNVALSGVLEVVRAGPARDPGPDPGPGPDPAARCPRHGRPLELFCRTEGRCVCSVCTVRECRLHERALLDAERLKREAQLRASLEVTQQQATQAEGQLLELRKQSSQIQNSACILASWVSGKFSSLLQALEIQHTTALRSIEVAKTQALAQARDEEQRLRVHLEAVARHGCRIRELLEQVDEQTFLQESQLLQPPGPLGPLTPLQWDEDQQLGDLKQLLSRLCGLLLEEGSHPGAPAKPVDLAPVEAPGPLAPVPSTVCPLRRKLWQNYRNLTFDPVSANRHFYLSRQDQQVKHCRQSRGPGGPGSFELWQVQCAQSFQAGHHYWEVRASDHSVTLGVSYPQLPRCRLGPHTDNIGRGPCSWGLCVQEDSLQAWHNGEAQRLPGVSGRLLGMDLDLASGCLTFYSLEPQTQPLYTFHALFNQPLTPVFWLLEGRTLTLCHQPGAVFPLGPQEEVLS [TRIM65]	49.2 °C	49.3 °C	-0.0459	-0.0816
